Data on 2 molecules can be found in patent publication US20200339959A1 (Memorial Sloan Kettering, published 2020).

The target of one experiment is T1, Flag-tagged human IRF3 (human, UniProt Q14653 1-427).
T1 construct: also called transcription factor IRF3; not shown: Flag tag
T1 sequence: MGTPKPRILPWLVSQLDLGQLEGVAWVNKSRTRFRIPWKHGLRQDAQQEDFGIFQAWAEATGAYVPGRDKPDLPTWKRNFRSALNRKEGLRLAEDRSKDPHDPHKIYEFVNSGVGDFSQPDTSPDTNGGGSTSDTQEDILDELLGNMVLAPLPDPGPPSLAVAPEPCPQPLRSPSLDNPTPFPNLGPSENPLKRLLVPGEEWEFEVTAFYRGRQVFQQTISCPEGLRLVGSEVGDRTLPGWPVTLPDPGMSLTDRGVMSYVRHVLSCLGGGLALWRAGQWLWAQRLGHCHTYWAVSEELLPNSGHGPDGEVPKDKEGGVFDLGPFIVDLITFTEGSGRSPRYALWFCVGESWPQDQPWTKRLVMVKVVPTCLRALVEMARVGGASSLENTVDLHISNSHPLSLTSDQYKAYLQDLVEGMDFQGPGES
Nature of the experiment: co-immunoprecipitation from HEK293T lysates: IP anti-C7, blot anti-Flag.

In a further experiment the target is T2, Flag-tagged human STAT2 (human, UniProt P52630 1-851).
T2 construct: also called flag-STAT2; not shown: Flag tag
The experiment can be described thus: co-immunoprecipitation from HEK293T lysates: IP anti-HA, blot anti-Flag.

The target of a further experiment is T3, Flag-tagged human STAT1 (human, UniProt P42224 1-750).
T3 construct: also called flag-STAT1; not shown: Flag tag
T3 sequence: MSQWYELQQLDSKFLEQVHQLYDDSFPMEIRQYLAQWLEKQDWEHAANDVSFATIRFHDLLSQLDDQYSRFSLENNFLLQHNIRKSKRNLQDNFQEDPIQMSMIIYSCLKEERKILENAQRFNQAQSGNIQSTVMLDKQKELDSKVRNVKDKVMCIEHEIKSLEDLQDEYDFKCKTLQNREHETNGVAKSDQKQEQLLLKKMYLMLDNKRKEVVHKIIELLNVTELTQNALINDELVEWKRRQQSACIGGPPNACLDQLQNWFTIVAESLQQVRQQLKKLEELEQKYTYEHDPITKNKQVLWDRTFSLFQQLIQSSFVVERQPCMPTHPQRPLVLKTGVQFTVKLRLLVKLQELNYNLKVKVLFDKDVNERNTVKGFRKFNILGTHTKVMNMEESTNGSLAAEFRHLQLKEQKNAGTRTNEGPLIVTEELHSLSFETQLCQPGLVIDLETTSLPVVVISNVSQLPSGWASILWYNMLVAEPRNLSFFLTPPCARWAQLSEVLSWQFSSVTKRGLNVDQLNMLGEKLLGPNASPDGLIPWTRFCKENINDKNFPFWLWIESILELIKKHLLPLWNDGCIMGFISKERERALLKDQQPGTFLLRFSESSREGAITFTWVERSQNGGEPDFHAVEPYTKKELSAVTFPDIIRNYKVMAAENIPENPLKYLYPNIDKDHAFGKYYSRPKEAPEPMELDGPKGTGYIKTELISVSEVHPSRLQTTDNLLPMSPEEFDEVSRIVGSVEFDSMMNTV
Described as above.

B1: vaccinia virus C7 protein (other)
chain: MGIQHEFDIIINGDIALRNLQLHKGDNYGCKLKIISNDYKKLKFRFIIRPDWSEIDEVKGLTVFANNYAVKVNKVDDTFYYVIYEAVIHLYNKKTEILIYSDDENELFKHYYPYISLNMISKKYKVKEENYSSPYIEHPLIPYRDYESMD
notes: also called vaccinia C7; C7L gene product
As to B1, in the experiment with Flag-tagged human IRF3, the binding result is listed as “binds”.

B2: HA-tagged vaccinia C7 (other)
chain: MGIQHEFDIIINGDIALRNLQLHKGDNYGCKLKIISNDYKKLKFRFIIRPDWSEIDEVKGLTVFANNYAVKVNKVDDTFYYVIYEAVIHLYNKKTEILIYSDDENELFKHYYPYISLNMISKKYKVKEENYSSPYIEHPLIPYRDYESMD
notes: also called C7-HA; HA-tagged C7
As for B2, the figures for the binding result with Flag-tagged human STAT2 and with Flag-tagged human STAT1 were “binds” and “no binding”, respectively.
